Source: article doi:10.1101/2023.08.30.555640 (bioRxiv, 2023)

Target: Wildtype human ubiquitin (human, UniProt P0CG47 1-76)
Test: NMR titration

- binding result: binds
Binder: PEVRFQQQLEQLNAMGFLNREANLQALIATGGDINAAIERLLGS (domain or fragment) [human ubiquilin2 UBA domain (residues 578 to 621)]
